In publication PMC7333360:

How the values were obtained:
Details in all cases: glycan lost; control: wild-type mice
[1] = heart weight per g body weight, three months
[2] = body weight at three months, n=6 per genotype
[3] = heterozygous crosses, observation of homozygous knock-in mice
[4] = breeding homozygous knock-in mice with WT
[5] = TAB1 IP and immunoblot, brain tissue

B1: TAB1 (TGF-β activated kinase-1 binding protein-1): S393A (protein)
parent chain: MAAQRRSLLQSEQQPSWTDDLPLCHLSGVGSASNRSYSADGKGTESHPPEDNWLKFRSENNCFLYGVFNGYDGNRVTNFVAQRLSAELLLGQLNTEHTEADVRRVLLQAFDVVERSFLESIDDALAEKASLQSQLPEGVPQHQLPPQYQKILERLKALEREISGGAMAVVAVLLNSKLYVANVGTNRALLCKSTVDGLQVTQLNMDHTTENEDELFRLSQLGLDAGKIKQMGVICGQESTRRIGDYKVKYGYTDIDLLSAAKSKPIIAEPEIHGAQPLDGVTGFLVLMSEGLYKALEAAHGPGQANQEIAAMIDTEFAKQTSLDAVAQAVVDRVKRIHSDTFASGGERAKFCPRHEDMTLLVRNFGYPLGEMSQPTPTPAPGGRVYPVSVPYSSAQSTSKTSVTLSLVMPSQGQMVNGSHSASTLDEATPTLTNQSPTLTLQSTNTHTQSSSSSSDGGLFRSRPAHSLPPGEDGRVEPYVDFAEFYRLWSVDHGEQSVMTAP
no change: other: heart weight [1] | other: body weight [2] | other: mouse viability and development [3] | other: fertility [4] | expression_or_secretion [5]
